These results are taken from article PMC8385704.

As a reminder, the EC50 is the concentration giving half of the maximal effect. Lower therefore signals a more potent agent.

The test deals with ACE2-Fc fusion protein (extracellular domain of human ACE2 and the Fc region of human IgG1) (human) (UniProt Q9BYF1). The test can be described thus: ELISA. In general terms: In an ELISA, binding on a coated surface is turned into a signal by an enzyme label.

“recombinant S1-subunit or RBD of SARS-CoV-2 variant B.1.1.7 (domain or fragment)” returned an EC50 of 0.8 nM. The value for “recombinant S1-subunit or RBD of SARS-CoV-2 variant B.1.351 (domain or fragment)” was 6.9 nM; that for “recombinant S1-subunit or RBD of SARS-CoV-2 variant B.1.617.1 (domain or fragment)” was 51.3 nM; that for “recombinant S1-subunit or RBD of SARS-CoV-2 variant P.1 (domain or fragment)” was 14.9 nM.

As to “recombinant S1-subunit or RBD of SARS-CoV-2-D614G (domain or fragment)”, the EC50 came to 2.6 nM.
